Test results: patent US20170157250A1

Assays:
[1] = biological target: human AXL (full length, on cells) (human (Homo sapiens)) (UniProt P30530); assay: flow cytometry, A431 cells pre-incubated with 10 µg/mL Gas6 (competitor)
[2] = biological target: human AXL (full length, on cells) (human (Homo sapiens)) (UniProt P30530); assay: flow cytometry, A431 cells pre-incubated with 10 µg/mL Gas6 (competitor); mean (s.d.)
[3] = biological target: human AXL (full length, on cells) (human (Homo sapiens)) (UniProt P30530); assay: flow cytometry, A431 cells pre-incubated with Gas6 (competitor); mean (s.d.)
[4] = biological target: human AXL (full length, on cells) (human (Homo sapiens)) (UniProt P30530); assay: flow cytometry, A431 cells pre-incubated with Gas6 (competitor); mean (s.d.); less accurate due to low binding
[5] = biological target: human AXL (full length, on cells) (human (Homo sapiens)) (UniProt P30530); assay: flow cytometry, A431 cells pre-incubated with 10 µg/mL Gas6 (competitor); mean (s.d.); less accurate due to low binding
[6] = biological target: human AXL (full length, on cells) (human (Homo sapiens)) (UniProt P30530); assay: flow cytometry, A431 cells, without Gas6; mean (s.d.)

Sequence of human AXL (full length, on cells) (human (Homo sapiens)) (P30530 26-894 limits assumed): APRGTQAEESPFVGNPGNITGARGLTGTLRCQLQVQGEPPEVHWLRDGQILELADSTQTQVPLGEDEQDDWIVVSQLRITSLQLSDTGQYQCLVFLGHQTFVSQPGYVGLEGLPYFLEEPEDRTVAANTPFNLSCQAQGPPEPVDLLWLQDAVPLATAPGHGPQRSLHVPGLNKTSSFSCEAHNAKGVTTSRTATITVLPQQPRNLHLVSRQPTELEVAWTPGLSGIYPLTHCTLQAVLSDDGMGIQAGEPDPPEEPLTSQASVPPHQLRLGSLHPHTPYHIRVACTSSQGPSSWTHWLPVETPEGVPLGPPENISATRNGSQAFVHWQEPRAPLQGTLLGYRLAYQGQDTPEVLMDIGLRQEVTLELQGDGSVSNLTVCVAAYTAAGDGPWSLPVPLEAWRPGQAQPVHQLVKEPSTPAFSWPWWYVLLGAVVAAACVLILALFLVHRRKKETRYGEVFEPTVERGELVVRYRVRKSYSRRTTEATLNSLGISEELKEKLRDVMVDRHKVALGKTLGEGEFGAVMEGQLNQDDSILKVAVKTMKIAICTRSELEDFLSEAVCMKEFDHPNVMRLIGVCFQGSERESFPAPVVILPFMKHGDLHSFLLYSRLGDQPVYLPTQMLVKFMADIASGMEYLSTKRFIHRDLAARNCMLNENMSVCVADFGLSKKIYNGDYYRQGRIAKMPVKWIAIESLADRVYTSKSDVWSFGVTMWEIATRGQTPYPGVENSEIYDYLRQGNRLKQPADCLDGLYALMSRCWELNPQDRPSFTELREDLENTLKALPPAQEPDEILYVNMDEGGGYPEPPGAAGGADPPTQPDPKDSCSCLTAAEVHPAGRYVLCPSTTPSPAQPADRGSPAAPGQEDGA

fold change of EC50 with Gas6 pre-incubation against without Gas6 [1]: 21 fold | maximal binding in presence of Gas6 (% of binding without Gas6) [1]: 19% | maximal binding in presence of Gas6 (% of binding in absence of Gas6) [2]: 41% | maximal binding in presence of Gas6 (% of binding in absence of Gas6) [3]: 41% | EC50 [4]: 1.9 µg/mL | EC50 [5]: 1.9 µg/mL | EC50 [6]: 0.09 µg/mL
B1: YW327.6S2 (antibody, from another filing, V domains shown)
VH: EVQLVESGGGLVQPGGSLRLSCAASGFSLSGSWIHWVRQAPGKGLEWVGWINPYRGYAYYADSVKGRFTISADTSKNTAYLQMNSLRAEDTAVYYCAREYSGWGGSSVGYAMDYWGQGTLVTVSS
VL: DIQMTQSPSSLSASVGDRVTITCRASQDVSTAVAWYQQKPGKAPKLLIYSASFLYSGVPSRFSGSGSGTDFTLTISSLQPEDFATYYCQQSYTTPPTFGQGTKVEIK
